This is an account of results in patent US20050214822A1 (RUTGERS THE STATE UNIVERSITY OF NEW JERSEY, published 2005).

This assay addresses T1, tau (rat, UniProt P19332-5 2-432, limits assumed).
T1 construct: Cytoskeletal protein used as a specificity control in the cypin immunoprecipitates
The assay is described as follows: immunoprecipitation from rat brain extract with polyclonal anti-cypin antibody. The procedure:
Cypin contains a region of homology to CRMP that binds directly to tubulin heterodimers (Akum et al., Nature Neurosci. 7:145 (2004)). To establish that cypin binds to tubulin, affinity chromatography was performed using a GST fusion of rat cypin immobilized on glutathione beads incubated with rat brain extract. The eluate was then assayed for the presence of tubulin. […] To assess whether this interaction occurs in vivo, rat brain extract was subjected to immunoprecipitation with preimmune serum or polyclonal antibody raised against cypin. Tubulin was found in the cypin immunoprecipitates (Id.). Very little tubulin was present when preimmune serum is used, representing nonspecific binding (Id.). Furthermore, no tau was detected in the cypin immunoprecipitates, supporting the idea that cypin binds specifically to tubulin and not all cytoskeletal proteins (Id.). In addition, cypin was found in tubulin immunoprecipitates.

T1 sequence (P19332 other isoform, or with tags, fused parts or gaps limits assumed): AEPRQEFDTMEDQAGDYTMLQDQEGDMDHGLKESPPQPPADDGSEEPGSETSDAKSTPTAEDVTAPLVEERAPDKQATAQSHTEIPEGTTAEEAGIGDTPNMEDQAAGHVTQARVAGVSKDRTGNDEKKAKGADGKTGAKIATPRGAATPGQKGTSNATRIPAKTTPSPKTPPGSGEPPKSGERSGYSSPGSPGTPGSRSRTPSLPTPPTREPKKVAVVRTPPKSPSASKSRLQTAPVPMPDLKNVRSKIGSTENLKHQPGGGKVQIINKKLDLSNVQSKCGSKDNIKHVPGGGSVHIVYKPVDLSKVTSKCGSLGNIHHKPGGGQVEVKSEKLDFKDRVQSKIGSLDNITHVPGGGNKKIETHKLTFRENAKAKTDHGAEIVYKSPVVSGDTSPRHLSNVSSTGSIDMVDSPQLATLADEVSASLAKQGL

B1: cypin in rat brain extract (enzyme)
chain: MCAARTPQLALIFRGTFVHSTWTCPMEVLRDHLLGVSDSGKIVFLEESSQQEKLAKEWCFKPCEIRELSHHEFFMPGLVDTHIHAPQYAFAGSNVDLPLLDWLNKYTFPTEKRFQSTDVAEEVYTRVVRRTLKNGTTTACYFGTIHTDSSLILAEITDKFGQRAFVGKVCMDLNNTVPEYKETTEESVKETERFVSEMLQKNYSRVKPIVTPRFSLSCTETLMSELGNIAKTHDLYIQSHISENREEIEAVKSLYPGYKNYTDVYDKNNLLTNKTVMAHGCYLSEEELNVFSERGASIAHCPNSNLSLSSGLLNVLDVLKHKVKIGLGTDVAGGYSYSMLDAIRRAVMVSNVLLINKVNEKSLTLKEVFRLATLGGSQALGLDREIGNFEVGKDFDALLINPRASDSPIDLFCGDFVGDISEAVIQKFLYLGDDRNIEEVYVGGKQVVPFSSSV
notes: Endogenous cypin immunoprecipitated from rat brain extract with a polyclonal antibody raised against cypin; also called endogenous cypin
Regarding B1, the binding result is “no binding”.
